Measured values reported in patent US11352401.

Each binder was assayed against T1, HLA-B*44 (human) (assay: UV peptide-exchange ELISA; +++ = yield >50%).
T1 construct: MHC monomer made peptide-receptive by UV cleavage of a UV-sensitive ligand; also called peptide-receptive MHC class I monomer
Text: Candidate peptides for T cell based therapies according to the present invention were further tested for their MHC binding capacity (affinity). The individual peptide-MHC complexes were produced by UV-ligand exchange, where a UV-sensitive peptide is cleaved upon UV-irradiation, and exchanged with the peptide of interest as analyzed. Only peptide candidates that can effectively bind and stabilize the peptide-receptive MHC molecules prevent dissociation of the MHC complexes. To determine the yield of the exchange reaction, an ELISA was performed based on the detection of the light chain (β2m) of stabilized MHC complexes. The assay was performed as generally described in Rodenko et al. (Rodenko et al., 2006).
96 well MAXISorp plates (NUNC) were coated over night with 2 ug/ml streptavidin in PBS at room temperature, washed 4× and blocked for 1 h at 37° C. in 2% BSA containing blocking buffer. […] Peptide-MHC monomers of the UV-exchange reaction were diluted 100-fold in blocking buffer. Samples were incubated for 1 h at 37° C., washed four times, incubated with 2 ug/ml HRP conjugated anti-β2m for 1h at 37° C., washed again and detected with TMB solution that is stopped with […]. Absorption was measured at 450 nm.

| Binder | peptide exchange yield [%] |
| --- | --- |
| SEFMQVIF [SEFMQVIF (SEQ ID NO: 323)] | 50 to 75 |
| AEQDMRELTY [AEQDMRELTY (SEQ ID NO: 349)] | 50 to 75 |
| EEVNYINTF [EEVNYINTF (SEQ ID NO: 351)] | 50 to 75 |
| ALNPYQYQY [ALNPYQYQY (SEQ ID NO: 347)] | 50 to 75 |
| EENDQSTHKW [EENDQSTHKW (SEQ ID NO: 483)] | 50 to 75 |
| AEMLESVIKNY [AEMLESVIKNY (SEQ ID NO: 321)] | 50 to 75 |
| SEIEQEIGSL [SEIEQEIGSL (SEQ ID NO: 478)] | 50 to 75 |
| QEMQHFLGL [QEMQHFLGL (SEQ ID NO: 326)] | 50 to 75 |
| EDAQGHIW [EDAQGHIW (SEQ ID NO: 331)] | 50 to 75 |
| SEGSEPALLHSW [SEGSEPALLHSW (SEQ ID NO: 338)] | 50 to 75 |
| AELDKLTSV [AELDKLTSV (SEQ ID NO: 363)] | 50 to 75 |
| QENSYQSRL [QENSYQSRL (SEQ ID NO: 477)] | 50 to 75 |
| NEHPSNNW [NEHPSNNW (SEQ ID NO: 329)] | 50 to 75 |
| TEDPTILRI [TEDPTILRI (SEQ ID NO: 354)] | 50 to 75 |
| RELQHEHSL [RELQHEHSL (SEQ ID NO: 481)] | 50 to 75 |
| HEFSSPSHL [HEFSSPSHL (SEQ ID NO: 342)] | 50 to 75 |
| GECDVFKEIL [GECDVFKEIL (SEQ ID NO: 350)] | 50 to 75 |
| TDSIHAWTF [TDSIHAWTF (SEQ ID NO: 324)] | 50 to 75 |
| MEMQKSPVF [MEMQKSPVF (SEQ ID NO: 373)] | 50 to 75 |
| AEIQPQTQV [AEIQPQTQV (SEQ ID NO: 479)] | 50 to 75 |
| SEIEDSTKQVF [SEIEDSTKQVF (SEQ ID NO: 485)] | 50 to 75 |

Next, values leading:

| peptide exchange yield [%] | Binder |
| --- | --- |
| 50 to 75 | EEATGQFHVY [EEATGQFHVY (SEQ ID NO: 344)] |
| 50 to 75 | RELENCFQIQ [RELENCFQIQ (SEQ ID NO: 357)] |
| 50 to 75 | GEVHPSEMI [GEVHPSEMI (SEQ ID NO: 367)] |
| 50 to 75 | AEIQGNINHV [AEIQGNINHV (SEQ ID NO: 348)] |
| 50 to 75 | EEGRVYLF [EEGRVYLF (SEQ ID NO: 356)] |
| 50 to 75 | SEKGVIQVY [SEKGVIQVY (SEQ ID NO: 362)] |
| 50 to 75 | EEIEGKGSFTYF [EEIEGKGSFTYF (SEQ ID NO: 341)] |
| 50 to 75 | AEDQLHHSF [AEDQLHHSF (SEQ ID NO: 487)] |
| 50 to 75 | AEVPTGVII [AEVPTGVII (SEQ ID NO: 360)] |
| 50 to 75 | AETPIQNVI [AETPIQNVI (SEQ ID NO: 364)] |
| 50 to 75 | AETLSTIQI [AETLSTIQI (SEQ ID NO: 333)] |
| 50 to 75 | EEIERFFKL [EEIERFFKL (SEQ ID NO: 369)] |
| 50 to 75 | TEREWADEW [TEREWADEW (SEQ ID NO: 482)] |
| 50 to 75 | SEDDPILQI [SEDDPILQI (SEQ ID NO: 486)] |
| 50 to 75 | KEGDLGGKQW [KEGDLGGKQW (SEQ ID NO: 330)] |
| 50 to 75 | YEIEARNQVF [YEIEARNQVF (SEQ ID NO: 327)] |

The binders below were run against T2, HLA-A*03 (human) (assay: UV peptide-exchange ELISA; ++++ = yield >75%).
T2 construct: MHC monomer made peptide-receptive by UV cleavage of a UV-sensitive ligand; also called peptide-receptive MHC class I monomer

| Binder | peptide exchange yield [%] |
| --- | --- |
| AVFDKFIRY [AVFDKFIRY (SEQ ID NO: 204)] | > 75 |
| KVKDTPGLGK [KVKDTPGLGK (SEQ ID NO: 203)] | > 75 |
| RSFNGLLTMY [RSFNGLLTMY (SEQ ID NO: 207)] | > 75 |

Results, then the binder that gave them:

| peptide exchange yield [%] | Binder |
| --- | --- |
| > 75 | KLAELEGALQK [KLAELEGALQK (SEQ ID NO: 202)] |
| > 75 | KLIDLSQVMY [KLIDLSQVMY (SEQ ID NO: 206)] |
| > 75 | SLDGAARPK [SLDGAARPK (SEQ ID NO: 205)] |

The binders below were run against T3, HLA-A*02 (human) (assay: UV peptide-exchange ELISA; ++++ = yield >75%).
T3 construct: MHC monomer made peptide-receptive by UV cleavage of a UV-sensitive ligand; also called peptide-receptive MHC class I monomer

| Binder | peptide exchange yield [%] |
| --- | --- |
| LLKEFVQRV [LLKEFVQRV (SEQ ID NO: 131)] | > 75 |
| SLFKDQMEL [SLFKDQMEL (SEQ ID NO: 392)] | > 75 |
| SLIDMRGIETV [SLIDMRGIETV (SEQ ID NO: 391)] | > 75 |
| FSIPEGALVAV [FSIPEGALVAV (SEQ ID NO: 388)] | > 75 |

Other lines, results leading:

| peptide exchange yield [%] | Binder |
| --- | --- |
| > 75 | ALWLVDPLTV [ALWLVDPLTV (SEQ ID NO: 132)] |
| > 75 | NLWGGQGLLGV [NLWGGQGLLGV (SEQ ID NO: 130)] |
| > 75 | TLMEQPLTTL [TLMEQPLTTL (SEQ ID NO: 389)] |
| > 75 | ILLPYLQTL [ILLPYLQTL (SEQ ID NO: 393)] |
| > 75 | MTLPVDAVISV [MTLPVDAVISV (SEQ ID NO: 133)] |
| > 75 | HIMPTVHTV [HIMPTVHTV (SEQ ID NO: 390)] |
| > 75 | VLYDKDAVYV [VLYDKDAVYV (SEQ ID NO: 129)] |
